Experimental data as given in patent US10428127B2, “Cyclic, amyloid beta-binding peptides and the use thereof” (FORSCHUNGSZENTRUM JUELICH GMBH, priority 2013, dated 2019).
“Also recorded” adds a separate entry of the source. Non-standard residues stand in square brackets, D forms with d. No end group written: not given here.

Key:
[1] = target: T1, amyloid beta fibrils (Homo sapiens, UniProt P05067); experiment: SPR binding kinetics, single-cycle, heterogeneous binding model (FIG. 4); conditions: 25° C., high-affinity site
T1 construct: 1 mg lyophilized Aß1-42 and N-terminal biotinylated Aß1-42; biotin (only on part of the peptide molecules)
Description: (§1) 1 mg lyophilized Aß1-42 and N-terminal biotinylated Aß1-42 were each dissolved in 1 ml 100% hexafluoroisopropanol (HFIP) and dissolved overnight at room temperature. For the oligomer and fibril preparation, non-biotinylated Aß was used with N-terminal biotinylated Aß at a ratio of 1:10 and the HFIP was evaporated (Concentrator 5301 from Eppendorf). The resultant Aß film, at a final concentration of 80 μM, was placed in sodium phosphate buffer (10 mM, pH 7.4) and incubated (RT, 600 rpm). The incubation time was 3 h for the oligomer preparation, and 24 h for the fibril preparation. 100% N-terminal biotinylated Aß1-42 without incubation was used for the preparation of monomers.
(§2) The density gradient centrifugation was carried out subsequent to the Aß preparation to purify the respective Aß species according to the size of the same. An iodixanol gradient in 10 mM sodium phosphate buffer, pH 7.4 with rising concentrations from 50% to 5% v/v iodixanol was used for this purpose. 100 μl of the Aß sample was applied and separated by way of ultracentrifugation (3 h, 4° C., 259000 g). […]
(§3) Binding kinetics were likewise measured by way of SPR spectroscopy using a T200 device from Biacore (GE Healthcare). […] The binding curves were evaluated by way of kinetic fit models (heterogeneous binding model) using the Biacore T200 evaluation software (version 2.0). […]

[2] = system: transgenic AD mice; conditions: oral administration with drinking water; cited from earlier work
[3] = target: T2, amyloid beta oligomers (Homo sapiens, UniProt P05067); experiment: SPR binding kinetics, single-cycle, heterogeneous binding model (FIG. 3)
T2 construct: 1 mg lyophilized Aß1-42 and N-terminal biotinylated Aß1-42; biotin (only on part of the peptide molecules)
Description: as §1
The density gradient centrifugation was carried out subsequent to the Aß preparation to purify the respective Aß species according to the size of the same. An iodixanol gradient in 10 mM sodium phosphate buffer, pH 7.4 with rising concentrations from 50% to 5% v/v iodixanol was used for this purpose. 100 μl of the Aß sample was applied and separated by way of ultracentrifugation (3 h, 4° C., 259000 g). Subsequently, the gradient was fractionated into 14 fractions, 140 μl each. Monomeric Aß are present in the first two top fractions, Aß oligomers in fractions 4 to 6, and Aß fibrils in fractions 11 to 13.
A T200 from Biacore (GE Healthcare) was used for SPR spectroscopy. The Aß species purified by way of density gradient centrifugation were directly immobilized on a sensor chip (Series S Sensor Chips SA) according to the manufacturer's instructions by way of biotin-streptavidin coupling. 1×PBS was used as the running buffer. Loading took place at 25° C. and a flow rate of 5 μl/min. Subsequently, the flow cells were freed from non-specifically bound ligand overnight at a steady flow of 30 μl/min.
Binding kinetics were likewise measured by way of SPR spectroscopy using a T200 device from Biacore (GE Healthcare). The standard conditions are 25° C. and a flow rate of 30 μl/min. Different lyophilizates of the D peptides were placed in the 1×PBS running buffer and serially diluted. The method used was a “single-cycle” kinetics method, wherein five increasing analyte concentrations were pumped over the immobilized flow cells. The contact times selected, depending on the analyte, were 90 to 120 s for association and dissociation and 1800 to 5400 s for the final dissociation. The sensorgrams were double referenced with the aid of an unloaded flow cell and the running buffer that was used. The binding curves were evaluated by way of kinetic fit models (heterogeneous binding model) using the Biacore T200 evaluation software (version 2.0).
FIGS. 2 to 4 show the results on the binding behavior of the cyclized peptides according to the invention (affinity study). The figures show data for the kinetic evaluation of the binding strength of the various candidates to amyloid beta monomers (FIG. 2), amyloid beta oligomers (FIG. 3), and amyloid beta fibrils (FIG. 4). The two binding constants that result when fitting a heterogeneous binding model are shown in each case, plotted as white bars and black bars. It is important to remember that a logarithmic scale is shown here, which means that minor differences in the bar size represent major differences in the dissociation constant KD. White bars are the respective low-affinity sites and the binding strengths thereof, and black bars show the high-affinity binding sites and the binding strengths thereof. […]

[4] = target: T3, A beta monomer (Homo sapiens, UniProt P05067); experiment: Density gradient centrifugation fractions treated with peptide, A beta size distribution (FIG. 1); assay type: biochemical; conditions: fractions 1 to 2 of density gradient
T3 construct: approximately 20 nM or 1.8 ng Aß 1-42
Description: (§4) Thereafter, the resultant fractions are treated with and without an active ingredient and determined by way of RP-HPLC, for example. In this way, it is possible to determine the effectiveness of the active ingredient.
(§5) A further method is described hereafter. The so-called QIAD (quantitative determination of interference with Aß aggregate size distribution) test can be used for the quantitative analysis of active ingredients. The method for quantitatively analyzing the influence of an active ingredient on the particle size distribution of amyloid peptides and/or proteins in a sample comprises the following steps. […] This change is established quantitatively. […] Finally, the concentration of A beta in the respective fraction is determined by completely denaturing the A beta species during a reverse phase (RP-)HPLC carried out subsequent to the fractionating. […] Eluting A beta is detected by way of UV absorption at 215 nm. […] Depending on the fraction, the mean value from multiple, for example six, experiments conducted independently of one another can be calculated with the resulting standard deviation. The advantage of HPLC analysis is that detection is very sensitive (such as approximately 20 nM or 1.8 ng Aß 1-42) and quantification is reliable independently of the state of aggregation and the solvent. […]

[5] = target: T4, A beta oligomers (Homo sapiens, UniProt P05067); experiment: as above; assay type: biochemical; conditions: fractions 4 to 8 (or 4 to 10) of density gradient; peptide 20 μM; versus control and linear D3
T4 construct: approximately 20 nM or 1.8 ng Aß 1-42
Description: as §4, §5

[6] = target: T5, amyloid beta monomers (Homo sapiens, UniProt P05067); experiment: SPR binding kinetics, single-cycle, heterogeneous binding model (FIG. 2); conditions: 25° C., high-affinity site
T5 construct: 100% N-terminal biotinylated Aß1-42 without incubation
Description: as §1, §2, §3

[7] = system: APPsDI mice; experiment: Morris water maze (MWW) test, spatial memory (FIG. 5); assay type: in vivo; conditions: five consecutive days, compared to saline
Description: The test measures the spatial memory of animals, which here were genetically engineered APPsDI mice.
The time is measured in seconds that an animal requires to locate a platform hidden closely beneath the water surface in a water tank. This is measured in several experiments per day on several consecutive days. […] The search time is plotted in seconds on five consecutive days for mice that were treated with the peptide according to the invention cD3R (SEQ ID NO. 5), compared to placebo experiments (saline).

T2 sequence (P05067 672-713): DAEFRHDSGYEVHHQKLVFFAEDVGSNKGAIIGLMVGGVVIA
T1 sequence (P05067 672-713): as above
T4 sequence (P05067 672-713): as above
T5 sequence (P05067 672-713): as above
T3 sequence (P05067 672-713): as above

In the case of “rkrtrlhthrnr (cyclo([dR][dK][dR][dT][dR][dL][dH][dT][dH][dR][dN][dR])) [cD3P2K]”, the “KD (kinetics), binding strength to amyloid beta fibrils” value [1] is reported as “sub-pM binding range”.
For “rprtrlhthrnr ([dR][dP][dR][dT][dR][dL][dH][dT][dH][dR][dN][dR]) [D3, D-enantiomeric linear peptide known from WO 02/081505 A2]”, the “cognitive abilities of treated mice” value [2] is given as “significantly improved cognitive abilities”, the “plaque in treated mice” value [2] is given as “considerably less plaque” and the “binding sites bound on amyloid beta oligomer” value ([3]; fit of SPR binding data) is given as “binds only a low-affinity site, but not a high-affinity site”.
In the case of “rprtrlhthrnr (cyclo([dR][dP][dR][dT][dR][dL][dH][dT][dH][dR][dN][dR]); SMILES CC(C)C[C@H]1NC(=O)[C@@H](CCCNC(=N)N)NC(=O)[C@@H]([C@H](C)O)NC(=O)[C@@H](CCCNC(=N)N)NC(=O)[C@H]2CCCN2C(=O)[C@@H](CCCNC(=N)N)NC(=O)[C@@H](CCCNC(=N)N)NC(=O)[C@@H](CC(N)=O)NC(=O)[C@@H](CCCNC(=N)N)NC(=O)[C@@H](Cc2c[nH]cn2)NC(=O)[C@@H]([C@H](C)O)NC(=O)[C@@H](Cc2c[nH]cn2)NC1=O) [cD3, cyclized D3, N-terminal amino group and C-terminal carboxyl group coupled by an amide bond]”, the “influence on the A beta monomer concentration” value [4] is reported as “no influence”, the “elimination / decrease of A beta oligomer concentration” value [5] is reported as “eliminates the oligomers in fractions 4 to 8 even more efficiently than linear D3; also recorded: clear decrease in the A beta oligomer concentration” and the “number of low-affinity sites relative to high-affinity sites” value ([3]; from Rmax 79/21%) is reported as “approximately 4 times”. For the same substance, the “Rmax, contribution of high-affinity site (KD2) to RU total loading” value ([3]; high-affinity site (KD2)) was 21% and the “Rmax, contribution of low-affinity site to RU total loading” value ([3]; low-affinity site (white bar)) was 79%.
With “rprtrlhthrnrr (cyclo([dR][dP][dR][dT][dR][dL][dH][dT][dH][dR][dN][dR][dR])) [cD3r]” the “KD (kinetics), binding affinity to amyloid beta monomers” value [6] was “particularly high affinity”, the “learning (search time to locate hidden platform)” value [7] was “significant” and the “KD (kinetics), binding strength to amyloid beta oligomers” value ([3]; SPR, 25° C., high-affinity site, compared with other cyclized peptides) was “binds even more strongly by two orders of magnitude than the other cyclized peptides”. For the same substance, the “KD (kinetics), binding strength to amyloid beta fibrils” value [1] was “does very well”.
